First the molecules themselves.
B1: Pistol ribozyme (parent)
chain: GGGUCGUUGUUCCAUAAUCGCGUGGAUAUGGCACGCAAGUUUCUACCGGGCACCGUAAAUGUCCGACUGGAGCCGUUCGGGCGGCUAUAAACAGACCUCAGGCCCGAAGCGUGGCGGCACCUGCCGCCGGUGGUAAAAAAGAUCGGAAGAGCACACGUCU

The data set covers variants of B1. Kind of data set: aptazyme ON/OFF ratio, guanine; higher = stronger switching; co-transcriptional cleavage with and without guanine.
On to GGGUCGCAACGAAAUAAUCGCGUGGAUAUGGCACGCAAGUUUCUACCGGGCACCGUAAAUGUCCGACUGGAGCCGUUCGGGCGGCUAUAAACAGACCUCAGGCCCGAAGCGUGGCGGCACCUGCCGCCGGUGGUAAAAAAGAUCGGAAGAGCACACGUCU [U7C U8A G9A U10C U11G C12A C13A], for which the “aptazyme ON/OFF ratio” value was determined as 1.2. For the variant GGGUCGCAACACUAUAAUCGCGUGGAUAUGGCACGCAAGUUUCUACCGGGCACCGUAAAUGUCCGACUGGAGCCGUUCGGGCGGCUAUAAACAGACCUCAGGCCCGAAGCGUGGCGGCACCUGCCGCCGGUGGUAAAAAAGAUCGGAAGAGCACACGUCU [U7C U8A G9A U10C U11A C13U], the “aptazyme ON/OFF ratio” value is 1.16.

As for GGGUCGUGAGAGGAUAAUCGCGUGGAUAUGGCACGCAAGUUUCUACCGGGCACCGUAAAUGUCCGACUGGAGCCGUUCGGGCGGCUAUAAACAGACCUCAGGCCCGAAGCGUGGCGGCACCUGCCGCCGGUGGUAAAAAAGAUCGGAAGAGCACACGUCU [U8G G9A U10G U11A C12G C13G], the “aptazyme ON/OFF ratio” value was 1.03. The result for GGGUCGCUCGCAUAUAAUCGCGUGGAUAUGGCACGCAAGUUUCUACCGGGCACCGUAAAUGUCCGACUGGAGCCGUUCGGGCGGCUAUAAACAGACCUCAGGCCCGAAGCGUGGCGGCACCUGCCGCCGGUGGUAAAAAAGAUCGGAAGAGCACACGUCU [U7C G9C U10G U11C C12A C13U] reads 1.11; that for GGGUCGGUCCUCAAUAAUCGCGUGGAUAUGGCACGCAAGUUUCUACCGGGCACCGUAAAUGUCCGACUGGAGCCGUUCGGGCGGCUAUAAACAGACCUCAGGCCCGAAGCGUGGCGGCACCUGCCGCCGGUGGUAAAAAAGAUCGGAAGAGCACACGUCU [U7G G9C U10C C13A], 1.14. Then GGGUCGCAAGUGCAUAAUCGCGUGGAUAUGGCACGCAAGUUUCUACCGGGCACCGUAAAUGUCCGACUGGAGCCGUUCGGGCGGCUAUAAACAGACCUCAGGCCCGAAGCGUGGCGGCACCUGCCGCCGGUGGUAAAAAAGAUCGGAAGAGCACACGUCU [U7C U8A G9A U10G C12G], with 1.25; and GGGUCGUUGAGGCAUAAUCGCGUGGAUAUGGCACGCAAGUUUCUACCGGGCACCGUAAAUGUCCGACUGGAGCCGUUCGGGCGGCUAUAAACAGACCUCAGGCCCGAAGCGUGGCGGCACCUGCCGCCGGUGGUAAAAAAGAUCGGAAGAGCACACGUCU [U10A U11G C12G], with 1.55. Then GGGUCGAGUCCGCAUAAUCGCGUGGAUAUGGCACGCAAGUUUCUACCGGGCACCGUAAAUGUCCGACUGGAGCCGUUCGGGCGGCUAUAAACAGACCUCAGGCCCGAAGCGUGGCGGCACCUGCCGCCGGUGGUAAAAAAGAUCGGAAGAGCACACGUCU [U7A U8G G9U U10C U11C C12G], with 1.37; and GGGUCGUGGCUGUAUAAUCGCGUGGAUAUGGCACGCAAGUUUCUACCGGGCACCGUAAAUGUCCGACUGGAGCCGUUCGGGCGGCUAUAAACAGACCUCAGGCCCGAAGCGUGGCGGCACCUGCCGCCGGUGGUAAAAAAGAUCGGAAGAGCACACGUCU [U8G U10C C12G C13U], with 1.27. For the variant GGGUCGAGUUAUUAUAAUCGCGUGGAUAUGGCACGCAAGUUUCUACCGGGCACCGUAAAUGUCCGACUGGAGCCGUUCGGGCGGCUAUAAACAGACCUCAGGCCCGAAGCGUGGCGGCACCUGCCGCCGGUGGUAAAAAAGAUCGGAAGAGCACACGUCU [U7A U8G G9U U11A C12U C13U], the “aptazyme ON/OFF ratio” value amounted to 1.07. Then GGGUCGCGGUGUCAUAAUCGCGUGGAUAUGGCACGCAAGUUUCUACCGGGCACCGUAAAUGUCCGACUGGAGCCGUUCGGGCGGCUAUAAACAGACCUCAGGCCCGAAGCGUGGCGGCACCUGCCGCCGGUGGUAAAAAAGAUCGGAAGAGCACACGUCU [U7C U8G U11G C12U], with 1.19; and GGGUCGCUAGGAAAUAAUCGCGUGGAUAUGGCACGCAAGUUUCUACCGGGCACCGUAAAUGUCCGACUGGAGCCGUUCGGGCGGCUAUAAACAGACCUCAGGCCCGAAGCGUGGCGGCACCUGCCGCCGGUGGUAAAAAAGAUCGGAAGAGCACACGUCU [U7C G9A U10G U11G C12A C13A], with 1.17. Then GGGUCGGUUAGAUAUAAUCGCGUGGAUAUGGCACGCAAGUUUCUACCGGGCACCGUAAAUGUCCGACUGGAGCCGUUCGGGCGGCUAUAAACAGACCUCAGGCCCGAAGCGUGGCGGCACCUGCCGCCGGUGGUAAAAAAGAUCGGAAGAGCACACGUCU [U7G G9U U10A U11G C12A C13U], with 1.12; and GGGUCGCUCUCUAAUAAUCGCGUGGAUAUGGCACGCAAGUUUCUACCGGGCACCGUAAAUGUCCGACUGGAGCCGUUCGGGCGGCUAUAAACAGACCUCAGGCCCGAAGCGUGGCGGCACCUGCCGCCGGUGGUAAAAAAGAUCGGAAGAGCACACGUCU [U7C G9C U11C C12U C13A], with 1.05; and GGGUCGGGGUGUGAUAAUCGCGUGGAUAUGGCACGCAAGUUUCUACCGGGCACCGUAAAUGUCCGACUGGAGCCGUUCGGGCGGCUAUAAACAGACCUCAGGCCCGAAGCGUGGCGGCACCUGCCGCCGGUGGUAAAAAAGAUCGGAAGAGCACACGUCU [U7G U8G U11G C12U C13G], with 1.26. For the variant GGGUCGGGCAUGGAUAAUCGCGUGGAUAUGGCACGCAAGUUUCUACCGGGCACCGUAAAUGUCCGACUGGAGCCGUUCGGGCGGCUAUAAACAGACCUCAGGCCCGAAGCGUGGCGGCACCUGCCGCCGGUGGUAAAAAAGAUCGGAAGAGCACACGUCU [U7G U8G G9C U10A C12G C13G], the “aptazyme ON/OFF ratio” value stood at 1.04. For GGGUCGGGCUCGCAUAAUCGCGUGGAUAUGGCACGCAAGUUUCUACCGGGCACCGUAAAUGUCCGACUGGAGCCGUUCGGGCGGCUAUAAACAGACCUCAGGCCCGAAGCGUGGCGGCACCUGCCGCCGGUGGUAAAAAAGAUCGGAAGAGCACACGUCU [U7G U8G G9C U11C C12G], the “aptazyme ON/OFF ratio” value was 3.

Turning to GGGUCGGAUCCGAAUAAUCGCGUGGAUAUGGCACGCAAGUUUCUACCGGGCACCGUAAAUGUCCGACUGGAGCCGUUCGGGCGGCUAUAAACAGACCUCAGGCCCGAAGCGUGGCGGCACCUGCCGCCGGUGGUAAAAAAGAUCGGAAGAGCACACGUCU [U7G U8A G9U U10C U11C C12G C13A], the “aptazyme ON/OFF ratio” value was 1.09.

(Values after the RNAGym collection of RNA variant scans (doi:10.1021/acssynbio.7b00057).)
